B1: RNF115 peptide 67-82 (E3 ubiquitin-protein ligase RNF115), 16-mer library wild type / MDM2 SWIB (MDM2 SWIB/MDM2 domain, residues 17-125) (parent)
chain 1: TTTHFAELWGHLDHTM
chain 2: SQIPASEQETLVRPKPLLLKLLKSVGAQKDTYTMKEVLFYLGQYIMTKRLYDEKQQHIVYCSNDLLGDLFGVPSFSVKEHRKIYTMIYRNLVVVNQQESSDSGTSVSEN
B2: ATXN2 peptide 911-926 (Ataxin-2), 16-mer library wild type / PABPC1 PABC (PABPC1 PABC domain, residues 544-623) (parent)
chain 1: KSTLNPNAKEFNPRSF
chain 2: PLTASMLASAPPQEQKQMLGERLFPLIQAMHPTLAGKITGMLLEIDNSELLHMLESPESLRSKVDEAVAVLQAHQAKEAA
B3: PIP5K1C peptide 640-655 (Phosphatidylinositol 4-phosphate 5-kinase type-1 gamma), 16-mer library wild type / TLN1 PTB (TLN1 Phosphotyrosine-binding (PTB) domain, residues 309-401) (parent)
chain 1: FPTDERSWVYSPLHYS
chain 2: GVSFFLVKEKMKGKNKLVPRLLGITKECVMRVDEKTKEVIQEWNLTNIKRWAASPKSFTLDFGDYQDGYYSVQTTEGEQIAQLIAGYIDIILK

Variants of: B1
Test: proteomic peptide phage display deep mutational scan (ProP-PD DMS): M13 P8 16-mer library selected against immobilised GST-tagged bait for four days (rounds), NGS of the eluted pools per day and pseudo-replica
Conditions: with MDM2 SWIB (MDM2 SWIB/MDM2 domain, residues 17-125); bait immobilised on MaxiSorp plates (10 µg), library pre-cleared on GST, 2 h binding at 4 °C, five washes; one round per day, days 1-4; value from days 2 and 3; keep out of graded; scale: average fractional NGS count over selection days 2 and 3

Variant | screen value
chain 1 A6N | 0.000134
chain 1 A6F | 0.000296
chain 1 A6P | 3.8e-05
chain 1 A6Y | 0.000156
chain 1 A6R | 0
chain 1 A6T | 0.00014
chain 1 M16G | 4.72e-05
chain 1 M16S | 0.000115
chain 1 M16H | 4.26e-05
chain 1 M16R | 0.000117
chain 1 M16K | 0
chain 1 G10K | 0
chain 1 G10F | 3.49e-05
chain 1 G10R | 2.89e-05
chain 1 G10H | 5.57e-05
chain 1 G10E | 8.15e-05
chain 1 G10V | 7.22e-05
chain 1 T2W | 2.98e-05
chain 1 T2N | 7.17e-05
chain 1 T2F | 4.31e-05
chain 1 H4W | 2.47e-05

Variant | screen value
chain 1 H4R | 1.9e-05
chain 1 L12T | 0
chain 1 L12F | 0
chain 1 L12K | 0
chain 1 L12S | 0
chain 1 L12V | 1.9e-05
chain 1 W9H | 0
chain 1 W9Q | 0
chain 1 W9P | 3.98e-05
chain 1 W9A | 0
chain 1 W9G | 0.000116
chain 1 W9Y | 0
chain 1 W9T | 7.05e-05
chain 1 W9L | 0
chain 1 W9N | 0
chain 1 W9D | 0
chain 1 W9K | 4.89e-05
chain 1 H14K | 0.000119
chain 1 H14D | 2.82e-05
chain 1 L8N | 0
chain 1 L8P | 1.29e-05

Variant | screen value
chain 1 L8E | 4.72e-05
chain 1 L8Q | 0
chain 1 L8S | 0
chain 1 L8A | 0
chain 1 F5A | 0
chain 1 F5N | 0
chain 1 F5R | 0
chain 1 F5K | 0
chain 1 F5D | 0
chain 1 T15E | 4.41e-05
chain 1 T15R | 5.55e-05
chain 1 T15N | 4.79e-05
chain 1 T15P | 7.64e-05
chain 1 T15K | 2.45e-05
chain 1 T3N | 6.02e-05
chain 1 E7G | 0
chain 1 E7Y | 0
chain 1 E7L | 7.08e-05
chain 1 E7W | 5.37e-05
chain 1 E7S | 0
chain 1 D13K | 0

Variants of: B2
Test: as above
Conditions: with PABPC1 PABC (PABPC1 PABC domain, residues 544-623); bait immobilised on MaxiSorp plates (10 µg), library pre-cleared on GST, 2 h binding at 4 °C, five washes; one round per day, days 1-4; value from days 2 and 3; scale: average fractional NGS count over selection days 2 and 3

Variant | screen value
chain 1 KSTLNPNAKEVNPRSF [chain 1 F11V] | 0
chain 1 KSTLNPNAKEYNPRSF [chain 1 F11Y] | 0.000235
chain 1 KSTLNPNAKEWNPRSF [chain 1 F11W] | 0.000158
chain 1 KSTLNPNAKEFNPRSD [chain 1 F16D] | 0.000103
chain 1 KSTLNPNAKEFNPRSY [chain 1 F16Y] | 0.000515
chain 1 KSTLNPNAKEFNPRSW [chain 1 F16W] | 8.6e-05
chain 1 KSTLNPNAKEFNPRSA [chain 1 F16A] | 0.00041
chain 1 KSTLNPNAKEFNPRSH [chain 1 F16H] | 0.000158
chain 1 KSTLNPNAKEFNPRSV [chain 1 F16V] | 0.000892
chain 1 KSTLNPNAKEFNPRSL [chain 1 F16L] | 0.00151
chain 1 KSTLNPNAKEFNPRSN [chain 1 F16N] | 0.000241
chain 1 KSTLNPNAKEFNPRSM [chain 1 F16M] | 0.000149
chain 1 KSTLNPNAKEFNPRST [chain 1 F16T] | 0.000108
chain 1 KSTLNPNAKEFNPRSS [chain 1 F16S] | 0.000134
chain 1 KSTLNPNAKEFNPRSI [chain 1 F16I] | 0.000285
chain 1 KSTLNPNVKEFNPRSF [chain 1 A8V] | 0.000222

Variant | screen value
chain 1 KSTLNPNSKEFNPRSF [chain 1 A8S] | 0
chain 1 KSTLNPNIKEFNPRSF [chain 1 A8I] | 0
chain 1 KSTLNPNRKEFNPRSF [chain 1 A8R] | 0
chain 1 KSTLNPNAEEFNPRSF [chain 1 K9E] | 0.00113
chain 1 KSTLNPNAAEFNPRSF [chain 1 K9A] | 0.000101
chain 1 KSTLNPNAFEFNPRSF [chain 1 K9F] | 0.000915
chain 1 KSTLNPNAGEFNPRSF [chain 1 K9G] | 0.000242
chain 1 KSTLNPNADEFNPRSF [chain 1 K9D] | 0.000277
chain 1 KSTLNPNAKRFNPRSF [chain 1 E10R] | 0
chain 1 KSTLNPNAKTFNPRSF [chain 1 E10T] | 0.000321
chain 1 KSTLNPNAKHFNPRSF [chain 1 E10H] | 0.000717
chain 1 KSTLNPNAKDFNPRSF [chain 1 E10D] | 0
chain 1 KSTLNPNAKVFNPRSF [chain 1 E10V] | 0.000349
chain 1 KSTLNPNAKSFNPRSF [chain 1 E10S] | 0
chain 1 KSTLNPNAKQFNPRSF [chain 1 E10Q] | 0

Variants of: B3
Test: as above
Conditions: with TLN1 PTB (TLN1 Phosphotyrosine-binding (PTB) domain, residues 309-401); bait immobilised on MaxiSorp plates (10 µg), library pre-cleared on GST, 2 h binding at 4 °C, five washes; one round per day, days 1-4; value from days 2 and 3; keep out of graded; scale: average fractional NGS count over selection days 2 and 3

Variant | screen value
chain 1 FPTDERSWRYSPLHYS [chain 1 V9R] | 0.000353
chain 1 FPTDERSWTYSPLHYS [chain 1 V9T] | 0.000147
chain 1 FPTDERSWYYSPLHYS [chain 1 V9Y] | 0.000288
chain 1 FPTDERSWWYSPLHYS [chain 1 V9W] | 0.000872
chain 1 FPTDERSWQYSPLHYS [chain 1 V9Q] | 0.000257
chain 1 FPTDERSWDYSPLHYS [chain 1 V9D] | 0.000489
chain 1 FPTDERSWEYSPLHYS [chain 1 V9E] | 0.000929
chain 1 FPTDERSWLYSPLHYS [chain 1 V9L] | 0.000573
chain 1 FPTDERSWFYSPLHYS [chain 1 V9F] | 0.000141
chain 1 FPTDERSWAYSPLHYS [chain 1 V9A] | 0.000113
chain 1 FPTDERSWNYSPLHYS [chain 1 V9N] | 0.00995
chain 1 FPTDERSWIYSPLHYS [chain 1 V9I] | 5.76e-05
chain 1 FPTDERSWMYSPLHYS [chain 1 V9M] | 0.00044
chain 1 FPTDERSWHYSPLHYS [chain 1 V9H] | 0.000257

Source: paper PMC12102759
